Results: the DeepSol protein solubility set

Test: soluble on expression in E. coli; label from the status in PepcDB or PDB records

Sequence | soluble on expression in E. coli
MGSDKIHHHHHHMKWRGYLTPVTENYLHAYGVGYISYVLARKFHVDSVKAFVTGTLHDLGGAVPADERVTVAESIGISLNDEEREVPLLVHAKLGKYFAQTLFDITDEDMLNAILFHTTCIDRASDLVKIVFLADKIRWDRNGTPPYLDGLLAALEISLDDGCSYFLKWLWNSDLYIVHPYLSRSYGAYVRQQQYNPISLQDFSVLQGNLNENLVKKYYLHDIYQEFHRTFYHAHLASVLASKHSVNTEEAYVTSALVNMTNTIKDDELETIASVLNLNVQVPIRPQLTSILARDEYGITSLEMLKTLKSFPQIPSNHNSLLWVVVMSWICQKSIKCEVEDE | not soluble
MGSDKIHHHHHHMQSIMPEADYSFLSMDPTMNANTGNKDSLATPSHTPQLQAFCDVVESRRSVRRFTDAPIPDDVLADCLRLAMLAPNSSNLQPWEFYVIDDADKRKRAVKNCMNQNAAKTSARLIAVVARTDVWHDHAKKILREYPDMPVPKKVKDYYNKVVALDFLRGPANVVSVAKWSAIQVVRRIKGPIKSPYYTFEDTKNWATNNTALAAGNLMLALRAHGFDSCPMGGFDEPAMKRLLKLSNHHHIVMMIGAGERADNGVYNTQFRFEQDQFVHYV | not soluble
MATARTARSRRKVRKVRDKWKEKVWYEIYATPEFGGVFIGYTPANDPSLVLGRVAETSLRDLTGDPTKHMHRVYFKIFGVTGNKAIAQYYGHDTTREFMKSQIRRRRSRIDAILDVKTQDGHKIRTKAMVLTAYRANTKQKSDIRKKMEEIIKAMAKEKTFPQYVQAMLFGEMAEKIKNECKKIFPIKNVIIYKSEVLSLAKKEENEGFVKEAEEETAEAQELEHHHHHH | soluble
MSLKTQQSYQQRDDKGTLYLVATPIGNLEDVTFRAIRTLKEADQIAAEDTRQTKKLLNHFDIATKLVSYHEHNKETMGKRLIDDLIEGRTIALVSDAGMPAISDPGYELVVSAIKEGIAVIPIPGANAAVTALIASGLPTESFQFIGFLPRQKKQRRQALEETKPTKATLIFYESPHRLKDTLDDMLLILGNRHVSICRELTKTYEEFLRGTLEEAVHWAREATIKGEFCLIVEGNGEKVEPEEVWWESLSPVQHVEHYIALGFRSKEAIKQVATDRGVPKRDIYNIYHQEEGHHHHHH | soluble
DDHSRALGRTTVNSNLGQGQVSGAESGAKTAEPAWIDFMQVALEGKPEQGKNIPDDIVRVRIDRNSGLLTHKVDSTSMFEYFEKGTEPTEYVGNSLEDSIYSSGSGGTTEELF | not soluble
MGHHHHHHSHMSWLKEVIGTEKAVIAMCHLRALPGDPGFDTRKGMNWVIDRAHDDLMALQNGGVDAVMFSNEFSLPYLTKVRPETTAAMARIIGQLMSEIRVPFGVNVLWDPVASFDLAMATDAKFIREIFTGAYASDFGVWDTNVGETIRHQHRIGAGHVKTLFNIVPEAAVYLGNRDVCSIAKSTVFNNNPDALCVSGLTAGARTDSAILKRVKETVPDTVVLANTGVCLENVEEQLCIADGCVTATTFKKDGVFANFVDQARVAKFMEKVRHIRQ | soluble
MLGMSYLRYVRIIGTVHVSPQSVKEVRNIILRENPDAVAVELDYGRLLSLLNGSSLTFSQAIKLGKIGILAYLLQGVEMALGKQVGVLPGSEMIEAFEVARSLGIPIYMIDMPIQVTLKRLFSVPIEEKIRGIIEIFLSIVYPKVELNLEDYISLELEFKRKYPTVYKILVEERNEFMARNLMRIVDILLERKKKIKIIAVVGLGHKRGIERILSHYSPKSIYLEHHHHHH | not soluble
MEEKQILCVGLVVLDVISLVDKYPKEDSEIRCLSQRWQRGGNASNSCTVLSLLGAPCAFMGSMAPGHVADFLVADFRRRGVDVSQVAWQSKGDTPSSCCIINNSNGNRTIVLHDTSLPDVSATDFEKVDLTQFKWIHIEGRNASEQVKMLQRIDAHNTRQPPEQKIRVSVEVEKPREELFQLFGYGDVVFVSKDVAKHLGFQSAEEALRGLYGRVRKGAVLVCAWAEEGADALGPDGKLLHSDAFPPPRVVDTLGAGDTFNASVIFSLSQGRSVQEALRFGCQVAGKKCGLQGFDGIV | soluble
DGNEIIGDPLRKAAKLIDKGYIVAIKGIGGIHLACDATREDVVAELRKRIFRPQKPFAIMAKDLETVRTFAYISPEEEEELTSYRRPIVALKKKEPFPLPENLAPGLHTIGVMLPYAGTHYILFHWSKTPVYVMTSANFPGMPMIKDNEEAFEKLRDVADYLLLHNRRIPNRADDSVVRFVDGRRAV | not soluble
MGSDKIHHHHHHMASQRGDTKLQLLRDTSLSHDGLNHTILTLNQLLHQRAPFYGEHLSATTSPTGLSFDEWSCADTYQKLIARFAIAHPSAENQTETKTENETETDKTAATSRTPAFASKSALVSKNAVPSRKDTRKALHSLWGQWYFGLLVPPMMEWIFNAPKTDVETLHWQPQSVFMQVHPSGRVAKFEFKIAKYQPITALTFKKHHGIEPLSRTNTKPSIKIDTEVHSPLSPYKPSVDKELVLQGFILNLLQSSVDRLLTLSPVPAKLYWSHLGYLIHWYLGELGLSQQQNQQLKQALFRRTTFLDGSTNPLYNSINLLIEPEQDSATPYTVARIVTSTASRSKPSPKIHCIRRTCCLRYQLANTGQCHDCPLLSRAKVNVNATKQT | not soluble
MSRFLISSFILIAFVLQFGEGSIAVQEVKDGEKVQIELFKGAKAIQRSVDAGEQIFHFEGENKGVFVDANGKAIDSSNYEENNGHLVIKKFTKADVGSYSEYPTKIIKTKTDHGFSGVAAPVLKLSLQ | soluble
MDQECIENYAKVNGIYIYYKLCKAPEEKAKLMTMHGGPGMSHDYLLSLRDMTKEGITVLFYDQFGCGRSEEPDQSKFTIDYGVEEAEALRSKLFGNEKVFLMGSSYGGALALAYAVKYQDHLKGLIVSGGLSSVPLTVKEMNRLIDELPAKYRDAIKKYGSSGSYENPEYQEAVNYFYHQHLLRSEDWPPEVLKSLEYAERRNVYRIMNGPNQFTITGTIKDWDITDKISAIKIPTLITVGEYDEVTPNVARVIHEKIAGSELHVFRDCSHLTMWEDREGYNKLLSDFILKHL | soluble
GHPTLKTPESVTGTWKGDVKIQCIYDPLRGYRQVLVKWLVRHGSDSVTIFLRDSTGDHIQQAKYRGRLKVSHKVPGDVSLQINTLQMDDRNHYTCEVTWQTPDGNQVIRDKIIELRVRK | soluble
MIPIEIDSGSGFCFGVVNAIRHAEKQLEKSSDKLYCLGDIVHNTLEVERLGKKGLETIDYDAFSRLRGAKVLLRAHGEPPEIYRMAGENGVTIIDATCPVVLRLQNKIKSRYEATRSLGAQVVIYGKRGHAEVNGLVGQTEGTAIVIESEEELDKIDYTRPVILFSQTTKSLEGFGQIIDSISTRMQPGVTFEHHDTICRQVANRIPHIGAFATAHELVFFVAGEKSSNGKVLFGHCLAANPRSIFISSPEVIVPDMLVPLPASIGICGATSTPRWQMEEVASHIKALLLEHHHHHH | soluble
MHLRTYYPTVVLSDIHLGTQHSKTEEVTHFLKSINCDRLILNGDIIDGWHLQKSGLGKWKAKHTDFFKVIMKMMENFGTQVIYVRGNHDDFLDNLAPLNFYNIRIVKDCIYESHGRRYYVTHGDIFDTVTTQMKWLAKLGDTGYTFLLWLNKVYNLRRMKQGKPYYSLSQSIKNRVKTAVSYISDFEKELVGLARAKKCDGVICGHIHHPANTFYEDIHYLNSGDWVETLSALTEDEDGNWTIRYFDSGLLKEDNHKEKQTISITIAS | not soluble
VKNFEWKTIFNWSKNNSMVESLPEGIDKIQIGSGVYNVKSYAEVGKPYGAIYAKTFKRDAEGYILCQLDGSPKEGQDYEYLGCVQADWRGGWNNVFRLGNFSFSVMFDFQKGGKFFSQTSIQSSVDGQSVKSLEGRDADFFSRKILGESDEERYGFMRPQNANTPTANGQIYPDWGRPKGVVLPNCRYDEDVEGLAGQQVLGYCTPERYWMHYTSRDISRFIYDASYVKLREITVSYDLPKKWLRKTPFQTFRVAAVGRNIATLFANTPHGLDPQATSTTGNAQGFERGFNLPSATYGFDIKVSF | not soluble
MAHHHHHHMHLKIVCLSDEVREMYKNHKTHHEGDSGLDLFIVKDEVLKPKSTTFVKLGIKAIALQYKSNYYYKCEKSENKKKDDDKSNIVNTSFLLFPRSSISKTPLRLANSIGLIDAGYRGEIIAALDNTSDQEYHIKKNDKLVQLVSFTGEPLSFELVEELDETSRGEGGFGSTSNNKY | soluble
GPGSMYRLFSCCKTNELKRLFSHALDASIKNEGVAQQRKRQVLPRRHRKLHKLTIREENEEGLRDFLPPKPVVPAGWKLEHVKGSNRFDLRKSVEIRDCGKEHLHAVAMMEVKEYEGTYRMDNGEREEEEYLFFTLFVQKNRFPGALEFGLTSIDMELVMDSLAIHNNREELEDAYGALSVSTSRNGTSNRIIEKSNLSCRSCRDNRYRGPMLSELDDDFSDEILDYLDERGVNNGFAEYMMAQAHFFEQEEYINWIRLLRQFAQ | not soluble
MDISRRNFLKSTASFGAIASLGLPGYSLAAPSNDFRALICVYLAGGNDAINTILPLSDFHYNQYANVRGSLSVAKNTIIPIRLNAHDANNNAVPLGLHPKLSALAPLFQQGDANLVLNSGILNQPVTKQAIEQGDVPLPEQLFSHNSQTASWLRGGMDASTNLGWAGRMLDVLTSDAQITPLYSVHGDTLWLKAMEHRQTVLKKDKAVQLTAVGNPLYEEVYQKLLSQSADNPFSGHFNLMVDESMMMSNILAEQLKLIDDAPLFSSSTLGKQMQTVYKLIASQSALSQQRQVFFVKHTGYDLHDSQLARHPLLLEDLATNLNAMYRAVDKLGMSKNVTTFTMSDFGRRMTNNGNGTDHGWGGHQLLIGGAVNGSAPIGTWPELTLGGQDDYSKGRLIPAIAADQVGSTLAQWMGVSDNAALEYVFPNIRNFTTSNLGFMA | not soluble
MIVIKTYQEENASALWDVFFNTVRKVNRKDYSNEQVTAWAPESFDTDVWKNKMQSLNPFIAEIDGVIVGYSDLQDDGLIDHFFCHYQHQGKGVGSALMTHILELAKERKLPRVYSHVSITAKPFYERFGFTVVKPQCIDVRGEQLINYVMERQ | not soluble
MYIPKHFAVNDPDVAYQVIEENSFATLVSMHQRELFATHLPLLLDREKTCLYGHFARSNPQWNDIQHQTVLAIFHGPHCYISPSWYETNQAVPTWNYVAVHVYGNVELINDQGEVMQSLHDMVEKYEAPGSRYQLSEVDAGMLSGMNKGIQAFKIIIKRIEGKAKLSQNHPAHRQERIIKQLEQMPFENEKRIASLMKKQRQ | soluble
MAHHHHHHMHDIYLDNPSTFEILEKMFSLYVNTYPDNELPIGFILMGDFISLKFDYNKNFNDLYIKGFEKLSVLLISKFKLILQNCYLIFIPGKNDPCACKNSIPKMPILPYYIKKFEQNIQSFFSCKKKIIFATNPCRIRHFNKKMIFFRQDILNDLIWSSSINATDDNKNNLQDILISTIVGQSHIYPIPHDNRILKRYSSFLFLYPLPNFICISDNTCNSFISYASDNTSDSIISNSDLSFTKKKTFTVYNVLQHDAKRYVVPI | not soluble
MSEAEAKLWQHLRAGRLNGYKFRRQQPMGNYIVDFMCVTPKLIVEADGGQHAEQAVYDHARTVYLNSLGFTVLRFWNHEILQQTNDVLAEILRVLQELEKQ | soluble
MARFIAQLLLLASCVAAGQAVTAFLGERVTLTSYWRRVSLGPEIEVSWFKLGPGEEQVLIGRMHHDVIFIEWPFRGFFDIHRSANTFFLVVTAANISHDGNYLCRMKLGETEVTKQEHLSVVKPLTLSVHSERSQFPDFSVLTVTCTVNAFPHPHVQWLMPEGVEPAPTAANGGVMKEKDGSLSVAVDLSLPKPWHLPVTCVGKNDKEEAHGVYVSGYLSQ | soluble
MSLYRDSKRKIIRDLQKQDIQYVEYGDTRTLIIPTDKYFMFSSPRLNEICYPGLNNVIRLLNFYPQSTIYVAGFTDNVGSRSHKRKLSQAQAETMMTFLWANGIAAKRLKAEGYGDKNAISDNAIIHGSAQNRRIEIQWFTSPAQPPQPQMAYVKEGHHHHHH | soluble
